The results in this text go back to US7727960B2, “C5a receptor antagonists” (Jerini AG, priority 2003, dated 2010).

Sequences and labels used below:
B1: Ac-Phe-[Orn-Pro-cha-Trp-XX1] (peptide)
peptide: Ac-F[Orn]P[dCha]W[XX1]
modifications: lactam (positions not given here); not fully specified (bridges); printed as Ac-Phe-[Orn-Pro-cha-Trp-XX1]
B2: Ac-Phe-[Orn-Pro-cha-Trp-Met] (peptide)
peptide: Ac-F[Orn]P[dCha]WM
modifications: lactam (positions not given here); not fully specified (bridges); printed as Ac-Phe-[Orn-Pro-cha-Trp-Met]
B3: Ac-Phe-[Orn-Pro-cha-Trp-Edn] (peptide)
peptide: Ac-F[Orn]P[dCha]W[Edn]
modifications: lactam (positions not given here); not fully specified (bridges); printed as Ac-Phe-[Orn-Pro-cha-Trp-Edn]
B4: Ac-Phe-[Orn-Pro-cha-Trp-Ecp] (peptide)
peptide: Ac-F[Orn]P[dCha]W[Ecp]
modifications: lactam (positions not given here); not fully specified (bridges); printed as Ac-Phe-[Orn-Pro-cha-Trp-Ecp]
B5: Ac-Phe-[Orn-Pro-cha-Trp-Thi] (peptide)
peptide: Ac-F[Orn]P[dCha]W[2Thi]
modifications: lactam (positions not given here); not fully specified (bridges); printed as Ac-Phe-[Orn-Pro-cha-Trp-Thi]
B6: Ac-Phe-[Orn-Pro-cha-Trp-2Ni] (peptide)
peptide: Ac-F[Orn]P[dCha]W[2Nal]
modifications: lactam (positions not given here); not fully specified (bridges); printed as Ac-Phe-[Orn-Pro-cha-Trp-2Ni]
B7: Ac-Phe-Orn-Ser-cha-Trp-Phe-OH (peptide)
peptide: Ac-F[Orn]S[dCha]WF-OH
SMILES: CC(=O)N[C@@H](Cc1ccccc1)C(=O)N[C@@H](CCCN)C(=O)N[C@@H](CO)C(=O)N[C@H](CC1CCCCC1)C(=O)N[C@@H](Cc1c[nH]c2ccccc12)C(=O)N[C@@H](Cc1ccccc1)C(=O)O
B8: Ac-Phe-[Orn-Pro-cha-Trp-Ecg] (peptide)
peptide: Ac-F[Orn]P[dCha]W[Ecg]
modifications: lactam (positions not given here); not fully specified (bridges); printed as Ac-Phe-[Orn-Pro-cha-Trp-Ecg]
B9: Ac-Phe-[Orn-Pro-cha-Trp-Dab] (peptide)
peptide: Ac-F[Orn]P[dCha]W[Dab]
modifications: lactam (positions not given here); not fully specified (bridges); printed as Ac-Phe-[Orn-Pro-cha-Trp-Dab]
B10: Ac-Phe-[Orn-Pro-cha-Trp-Hle] (peptide)
peptide: Ac-F[Orn]P[dCha]W[hLeu]
modifications: lactam (positions not given here); not fully specified (bridges); printed as Ac-Phe-[Orn-Pro-cha-Trp-Hle]
B11: Ac-Phe-[Orn-Pro-cha-Trp-Pmf] (peptide)
peptide: Ac-F[Orn]P[dCha]W[Phe(4-Me)]
modifications: lactam (positions not given here); not fully specified (bridges); printed as Ac-Phe-[Orn-Pro-cha-Trp-Pmf]
B12: Ac-Phe-[Orn-Pro-cha-Trp-Ebd] (peptide)
peptide: Ac-F[Orn]P[dCha]W[Ebd]
modifications: lactam (positions not given here); not fully specified (bridges); printed as Ac-Phe-[Orn-Pro-cha-Trp-Ebd]
B13: Ac-Phe-[Orn-Pro-cha-Trp-Ppa] (peptide)
peptide: Ac-F[Orn]P[dCha]W[4Pal]
modifications: lactam (positions not given here); not fully specified (bridges); printed as Ac-Phe-[Orn-Pro-cha-Trp-Ppa]
B14: Ac-Phe-[Orn-Pro-cha-Trp-Eag] (peptide)
peptide: Ac-F[Orn]P[dCha]W[Eag]
modifications: lactam (positions not given here); not fully specified (bridges); printed as Ac-Phe-[Orn-Pro-cha-Trp-Eag]
B15: Ac-Phe-[Orn-Pro-cha-Trp-Ala] (peptide)
peptide: Ac-F[Orn]P[dCha]WA
modifications: lactam (positions not given here); not fully specified (bridges); printed as Ac-Phe-[Orn-Pro-cha-Trp-Ala]
B16: Ac-Phe-[Orn-Pro-cha-Trp-Phe(4-Amidin)] (peptide)
peptide: Ac-F[Orn]P[dCha]W[Phe(4-Amidin)]
modifications: lactam (positions not given here); not fully specified (bridges); printed as Ac-Phe-[Orn-Pro-cha-Trp-Phe(4-Amidin)]
B17: Ac-Phe-[Orn-Pro-cha-Trp-Ebu] (peptide)
peptide: Ac-F[Orn]P[dCha]W[Ebu]
modifications: lactam (positions not given here); not fully specified (bridges); printed as Ac-Phe-[Orn-Pro-cha-Trp-Ebu]
B18: Ac-Phe-[Orn-Pro-cha-Trp-Tyr] (peptide)
peptide: Ac-F[Orn]P[dCha]WY
modifications: lactam (positions not given here); not fully specified (bridges); printed as Ac-Phe-[Orn-Pro-cha-Trp-Tyr]
B19: Ac-Phe-[Orn-Pro-cha-Trp-Cha] (peptide)
peptide: Ac-F[Orn]P[dCha]W[Cha]
modifications: lactam (positions not given here); not fully specified (bridges); printed as Ac-Phe-[Orn-Pro-cha-Trp-Cha]
B20: Ac-Phe-[Orn-Pro-cha-Trp-XX2] (peptide)
peptide: Ac-F[Orn]P[dCha]W[XX2]
modifications: lactam (positions not given here); not fully specified (bridges); printed as Ac-Phe-[Orn-Pro-cha-Trp-XX2]

Starred links: 1 amine or outer side, 2 acyl side, 3 side chain; linkers in the order of their positions; H or OH if unused. Positions of bridges follow the written chain, without caps; N, C: chain ends. Non-standard residues stand in square brackets, D forms with d. No end group written: not given here. 2‑Acetamido‑1‑Methyl‑Glucuronyl = 2-Acetamido-1-methyl-glucuronyl N-terminal group; Ecp = His(tau-4-methoxybenzyl), COc1ccc(Cn2cnc(C[C@H](N[*:1])C(=O)[*:2])c2)cc1; Edn = Cys(CH2-CH2-4-pyridyl), O=C([C@H](CSCCc1ccncc1)N[*:1])[*:2]; Ebu = Cys(3-picolyl), O=C([C@H](CSCc1cccnc1)N[*:1])[*:2]; Ecg = Cys(2-picolyl), O=C([C@H](CSCc1ccccn1)N[*:1])[*:2]; Phe(4-tBu) = CC(C)(C)c1ccc(C[C@H](N)C(=O)O)cc1; XX1 = 2-Amino-3-(4-piperidinyl)propionic acid; Ebd = Cys(Et), CCSC[C@H](N[*:1])C(=O)[*:2]; Phe(4-Me) = Cc1ccc(C[C@H](N)C(=O)O)cc1; 1Nal = N[C@@H](Cc1cccc2ccccc12)C(=O)O; 2Nal = N[C@@H](Cc1ccc2ccccc2c1)C(=O)O; XX2 = 4-guanidyl-piperidinyl-alanine; 4Pal = N[C@@H](Cc1ccncc1)C(=O)O; 2Thi = N[C@@H](Cc1cccs1)C(=O)O; Cha = N[C@@H](CC1CCCCC1)C(=O)O; dCha = N[C@H](CC1CCCCC1)C(=O)O; dChg = N[C@@H](C(=O)O)C1CCCCC1; Phg = N[C@H](C(=O)O)c1ccccc1; hLeu = CC(C)CC[C@H](N)C(=O)O; Eag = 2-Propargylglycine; Nle = CCCC[C@H](N)C(=O)O; Orn = NCCC[C@H](N)C(=O)O; Dab = NCC[C@H](N)C(=O)O

The assay deals with T1, human C5aR (CD88) (human, UniProt P21730 1-350).
T1 sequence (looked up): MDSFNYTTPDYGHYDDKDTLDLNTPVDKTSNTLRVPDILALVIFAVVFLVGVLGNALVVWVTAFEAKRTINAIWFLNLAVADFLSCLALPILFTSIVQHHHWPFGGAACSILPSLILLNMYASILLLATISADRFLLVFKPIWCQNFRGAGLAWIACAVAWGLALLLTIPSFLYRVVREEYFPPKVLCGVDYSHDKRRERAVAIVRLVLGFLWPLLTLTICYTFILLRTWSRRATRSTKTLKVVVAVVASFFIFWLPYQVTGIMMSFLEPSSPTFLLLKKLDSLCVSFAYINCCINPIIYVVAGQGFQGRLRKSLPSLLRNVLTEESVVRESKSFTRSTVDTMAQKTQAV
The assay is described as follows: cell-based or functional assay.
As to B1, the “IC50 activity group, enzyme release assay” value (shortened to “IC50 activity group”) is over 2000 nM.

B2: the “IC50 activity group” value is at most 200 nM.

In the case of B3, the “IC50 activity group” value was at most 2000 nM.

As to B4, the “IC50 activity group” value was at most 2000 nM.

With B5, the “IC50 activity group” value is at most 50 nM.

As for Ac-F[Orn]P[dHch]WF-OH [Ac-Phe-Orn-Pro-hch-Trp-Phe-OH, listing 1 of 2 here], the “IC50 activity group” value was at most 200 nM.

As to B6, the “IC50 activity group” value is at most 200 nM.

As to Ac-F[Orn]P[dCha]W[1Nal]-NH2 [Ac-Phe-Orn-Pro-cha-Trp-1Ni-NH2], the “IC50 activity group” value is at most 50 nM.

Regarding B7, the “IC50 activity group” value is at most 2000 nM.

Turning to B8, the “IC50 activity group” value was at most 2000 nM.

As for B9, the “IC50 activity group” value is at most 200 nM.

For the molecule B10, the “IC50 activity group” value was at most 50 nM.

In the case of Ac-F[Orn]P[dCha]W[Cha]-NH2 [Ac-Phe-Orn-Pro-cha-Trp-Cha-NH2], the “IC50 activity group” value was at most 200 nM.

With B11, the “IC50 activity group” value was at most 50 nM.

As for B12, the “IC50 activity group” value was at most 50 nM.

Consider {Ph‑CH(OH)‑CH2‑CO}-[Orn]P[dCha]W[Nle] (lactam 1-C) [Ph-CH(OH)-CH2-CO-[Orn-Pro-cha-Trp-Nle]], for which the “IC50 activity group” value was at most 50 nM.

Take B13: the “IC50 activity group” value was at most 200 nM.

For the molecule {Ph‑CH2}-[Orn]P[dCha]W[Nle] (lactam 1-C) [Ph-CH2-[Orn-Pro-cha-Trp-Nle]], the “IC50 activity group” value is at most 50 nM.

In the case of Ac-F[Orn]P[dCha]W[Phe(4-tBu)]-NH2 [Ac-Phe-Orn-Pro-cha-Trp-Eap-NH2], the “IC50 activity group” value was at most 2000 nM.

Take B14: the “IC50 activity group” value was at most 10 nM.

Turning to Ac-F[Orn]P[dChg]WF-OH [Ac-Phe-Orn-Pro-chg-Trp-Phe-OH], the “IC50 activity group” value was at most 2000 nM.

Take FXPXWR (not fully specified; Ac-; Orn2; cha4 (D); Arg(Me2)6; cyclic [2-6]) [Ac-Phe-[Orn-Pro-cha-Trp-Arg(Me2)]]: the “IC50 activity group” value was at most 200 nM.

Regarding FXPXWR (not fully specified; Ac-; Orn2; cha4 (D); Arg(CH2CH2)6; cyclic [2-6]) [Ac-Phe-[Orn-Pro-cha-Trp-Arg(CH2CH2)]], the “IC50 activity group” value was at most 2000 nM.

B15: the “IC50 activity group” value was over 2000 nM.

As for B16, the “IC50 activity group” value was at most 2000 nM.

As to B17, the “IC50 activity group” value is at most 2000 nM.

For Ac-F[Orn]P[dCha]W[Phg]-NH2 [Ac-Phe-Orn-Pro-cha-Trp-Phg-NH2], the “IC50 activity group” value was at most 2000 nM.

As for Ac-F[Orn]P[dCha]W[2Thi]-NH2 [Ac-Phe-Orn-Pro-cha-Trp-Thi-NH2], the “IC50 activity group” value was at most 200 nM.

With Ac-F[Orn]P[dCha]W-{NH‑CH2‑CH2‑Ph} [Ac-Phe-Orn-Pro-cha-Trp-NH-CH2-CH2-Ph], the “IC50 activity group” value was at most 2000 nM.

Regarding B18, the “IC50 activity group” value was at most 50 nM.

On to {2‑Acetamido‑1‑Methyl‑Glucuronyl}-F[Orn]P[dCha]W[Nle] (lactam 2-C) [X-Phe-[Orn-Pro-cha-Trp-Nle]; X = 2-Acetamido-1-Methyl-Glucuronyl], for which the “IC50 activity group” value was at most 50 nM.

B19: the “IC50 activity group” value is at most 200 nM.

With {Ph‑CH2}-[Orn]P[dCha]WF (lactam 1-C) [Ph-CH2-[Orn-Pro-cha-Trp-Phe]], the “IC50 activity group” value is at most 50 nM.

As to B20, the “IC50 activity group” value was over 2000 nM.

With Ac-F[Orn]P[dHch]WF-OH [Ac-Phe-Orn-Pro-hch-Trp-Phe-OH, listing 2 of 2 here], the “IC50 activity group” value is at most 200 nM.

Take {Ph2‑CH‑CH2‑CO}-[Orn]P[dCha]WF-NH2 [Ph2-CH-CH2-CO-Orn-Pro-cha-Trp-Phe-NH2]: the “IC50 activity group” value was at most 2000 nM.
